Reference: the supplement of paper PMC9732359
± gives the uncertainty stated by the source.

Assay: protein stability index of a GFP-peptide fusion (yeast GPS) (PSI 1-4); higher = more stable; sorted into four equal gates, so the index is relative within each strain
Procedure, shortened: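 Sequencing reads from sorted gates were used to score each peptide. The library consisted of tiled 17-residue yeast protein peptides fused downstream of GFP on a Cherry-expressing plasmid, pooled and carried in yeast. Mid-log cultures in leucine-free medium were split into four equal gates by GFP/Cherry ratio, and each gate's plasmids were PCR-amplified and Illumina-sequenced. The protein stability index adds up, over all gates, the read frequency multiplied by the gate number.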

Row | Sequence | protein stability index (doa10∆) | protein stability index (pdr5∆) | protein stability index (san1∆) | protein stability index (ubr1∆)
1 | KKLKPIVAKYDPPIIIF [PRP28] | 2.94 ± 0.069 | 2.59 ± 0.075 | 2.73 ± 0.086 | 2.37 ± 0.052
2 | KKENLTRDETVSLIKKY [YML103C/NUP188] | 2.82 ± 0.065 | 2.83 ± 0.1 | 2.55 ± 0.096 | 2.6 ± 0.078
3 | DTSYKIDGKTVSYKDYS [SMC1] | 2.6 ± 0.049 | 2.79 ± 0.042 | 2.58 ± 0.046 | 2.95 ± 0.04
4 | PNINTWQQVTALAQQKL [GAL11] | 2.2 ± 0.058 | 2.23 ± 0.064 | 2.11 ± 0.085 | 2.08 ± 0.054
5 | VAATNTPIIFIGTGEHI [SRP54] | 2.17 ± 0.1 | 3.03 ± 0.12 | 2.26 ± 0.083 | 2.6 ± 0.071
6 | PLRDNGLLDESPNRLRV [YML031W/NDC1] | 3.2 ± 0.14 | 3.03 ± 0.1 | 3.15 ± 0.08 | 3.39 ± 0.074
7 | KSNRSYSIALSNVAAIF [GAL11] | 1.76 ± 0.08 | 1.67 ± 0.097 | 1.4 ± 0.27 | 1.43 ± 0.064
8 | QLDLTGIFLHGKIPTLK [PRP8] | 2.39 ± 0.078 | 1.43 ± 0.058 | 1.58 ± 0.089 | 1.36 ± 0.046
9 | NLDFDPRDVIKGKDFEI [FAS1] | 3.47 ± 0.25 | 2.9 ± 0.29 | 3.32 ± 0.11 | 3.46 ± 0.1
10 | YIKNILEAPVKSIENPT [YLR335W/NUP2] | 2.38 ± 0.061 | 2.33 ± 0.063 | 2.19 ± 0.084 | 2.13 ± 0.057
11 | PKSTAPIFSFGKQEENG [YOR098C/NUP1] | 2.24 ± 0.053 | 2.75 ± 0.069 | 2.49 ± 0.059 | 2.38 ± 0.043
12 | LESYKTQAKKLYHHTTK [SRP72] | 2.29 ± 0.068 | 2.73 ± 0.096 | 2.02 ± 0.13 | 2.66 ± 0.06
13 | SIGKNPFNKPNIETGEN [SWI3] | 3.04 ± 0.055 | 3.03 ± 0.048 | 2.87 ± 0.037 | 2.97 ± 0.044
14 | AICRYANVIKALAFCEI [RRP4] | 1.42 ± 0.069 | 2.04 ± 0.099 | 1.66 ± 0.18 | 2.22 ± 0.072
15 | SEHVFDYFFYFLVLYDV [NUT1] | 2.12 ± 0.039 | 2.06 ± 0.033 | 2.26 ± 0.045 | 2.36 ± 0.034
16 | RSAWNNNNDNDANRNAN [GRR1] | 2.55 ± 0.041 | 2.65 ± 0.036 | 2.62 ± 0.034 | 2.7 ± 0.039
17 | QTKSNGTAGGNTFGSSS [YJL041W/NSP1] | 3.28 ± 0.063 | 2.84 ± 0.064 | 2.96 ± 0.055 | 3.22 ± 0.053
18 | ERTKNAQFIVISLRNNM [SMC4] | 2.72 ± 0.13 | 1.3 ± 0.063 | 1.33 ± 0.093 | 1.73 ± 0.08
19 | KNVLANSIWGSSLRKNA [ITC1] | 1.49 ± 0.057 | 1.89 ± 0.05 | 1.82 ± 0.13 | 1.45 ± 0.042
20 | AQFAGRASIEYYVGQVM [DIS3] | 3.46 ± 0.28 | 2.84 ± 0.2 | 2.64 ± 0.17 | –
21 | LCLTEFENCYLEGNDIH [FAS1] | 3.02 ± 0.089 | 3.26 ± 0.076 | 3.2 ± 0.13 | 2.95 ± 0.1
22 | NRSNDALIKFMEYHISN [FAS2] | 2.93 ± 0.074 | 2.55 ± 0.078 | 2.96 ± 0.084 | 2.45 ± 0.057
23 | DDDDSRKSAPVDSWDRE [SKP1] | 3.15 ± 0.047 | 3.21 ± 0.048 | 3.21 ± 0.048 | 3.23 ± 0.044
24 | NTSAKNKNGENKKIGKR [SIR4] | 3.02 ± 0.27 | 3.19 ± 0.14 | 3.03 ± 0.21 | –
25 | QVFSVKDSTAGKKVFET [YJR042W/NUP85] | – | – | 3.09 ± 0.2 | –
26 | QKNDTAAFKDIAKRQFK [RRP40] | 2.95 ± 0.093 | 3.33 ± 0.12 | 2.76 ± 0.068 | 3.35 ± 0.058

Row | Sequence | protein stability index (doa10∆) | protein stability index (pdr5∆) | protein stability index (san1∆) | protein stability index (ubr1∆)
27 | SDPLTVFSESCSNESFA [SNU114] | 2.83 ± 0.055 | 2.96 ± 0.057 | 2.58 ± 0.047 | 2.96 ± 0.038
28 | NYDTCGGESAYFFQLQI [RPC11] | 2.72 ± 0.2 | 2.75 ± 0.15 | 2.04 ± 0.14 | 2.94 ± 0.14
29 | HKYVLTLQLYMVHREFL [RGR1] | 1.38 ± 0.039 | 1.47 ± 0.037 | 1.86 ± 0.055 | 2.1 ± 0.034
30 | NMFGDYSNEPFNTNFDD [SNF6] | 3.11 ± 0.088 | 2.78 ± 0.059 | 3.06 ± 0.069 | 2.85 ± 0.045
31 | ILCGIQEYLNPVIDTQI [YDL116W/NUP84] | – | 2.12 ± 0.2 | 2.01 ± 0.17 | –
32 | KCQTCQEGMNECPGHFG [RPO21] | 3.34 ± 0.17 | 3.23 ± 0.094 | 3.51 ± 0.086 | 3.26 ± 0.091
33 | DFILSLLHHVSELDSND [YJL039C/NUP192] | 1.93 ± 0.071 | 1.88 ± 0.064 | 1.42 ± 0.11 | 2.4 ± 0.054
34 | GAKFENIVHNFKERQMM [AAR2] | 3.32 ± 0.081 | 2.71 ± 0.096 | 2.76 ± 0.089 | 3.04 ± 0.11
35 | KLQKYGAAVRLTGSDRV [RPN7] | – | 3.62 ± 0.27 | – | 2.99 ± 0.14
36 | GRTGRAANEGTAVSFVS [PRP28] | 2.7 ± 0.26 | – | 2.81 ± 0.27 | 2.7 ± 0.26
37 | SGVPRLKEILNVAKNMK [RPO21] | 1.23 ± 0.12 | 1.83 ± 0.12 | 1.32 ± 0.26 | 1.4 ± 0.082
38 | ALEYIGAKVKTMRRQKL [RET1] | 2.1 ± 0.069 | 2.48 ± 0.097 | 2.22 ± 0.089 | 2.19 ± 0.066
39 | LLETKLRQQYEIELKKL [SWI1] | 3.01 ± 0.12 | 2.96 ± 0.1 | 3.17 ± 0.069 | 2.92 ± 0.11
40 | ERDTFSDFTFPEYYSTA [DIS3] | 1.66 ± 0.082 | 1.73 ± 0.082 | 2.15 ± 0.17 | 1.64 ± 0.14
41 | NKSISDEITEDMFEMSD [SSN2] | 3.03 ± 0.075 | 3.1 ± 0.075 | 2.82 ± 0.058 | 3.1 ± 0.05
42 | ADVFTDDDLFETLVLSY [YCG1] | 2.46 ± 0.09 | 2.65 ± 0.056 | 2.85 ± 0.064 | 2.06 ± 0.041
43 | NKEMHTDLGKDIPFFPS [SSN2] | 2.34 ± 0.062 | 2.01 ± 0.066 | 2.52 ± 0.066 | 2.76 ± 0.055
44 | DNIYRNLQKIDKDSEEL [MED4] | 2.85 ± 0.078 | 3.16 ± 0.058 | 2.85 ± 0.049 | 3.01 ± 0.054
45 | AKQALDLYHFALNYENE [SNF2] | 2.47 ± 0.098 | 2.83 ± 0.084 | 2.69 ± 0.095 | 1.83 ± 0.1
46 | PSQGMVVEISNGNTSSK [FAS1] | 3.08 ± 0.057 | 3.27 ± 0.051 | 3.2 ± 0.048 | 3.29 ± 0.056
47 | EINSEMCHIVRKFHELN [GRR1] | 2.4 ± 0.057 | 2.81 ± 0.063 | 2.85 ± 0.064 | 2.44 ± 0.05
48 | DDLIAEENPIMQTALRR [QCR7] | – | 3.24 ± 0.22 | 2.92 ± 0.15 | 3.06 ± 0.13
49 | IAKFERSEEEVTKLNVL [YIL149C/MLP2] | 3.4 ± 0.13 | 3.46 ± 0.093 | 3.31 ± 0.051 | 3.4 ± 0.069
50 | DDVTCDKLSVSEISDGK [SIN4] | 2.97 ± 0.073 | 3.11 ± 0.078 | 2.81 ± 0.08 | 3.29 ± 0.058
51 | STKRVTKHPSLKTLTHK [POP7] | 2.56 ± 0.062 | 2.78 ± 0.06 | 2.56 ± 0.083 | 2.64 ± 0.061
52 | IETVDDKLKDIVGQTSR [ITC1] | 3.25 ± 0.07 | 3.01 ± 0.075 | 3.17 ± 0.086 | 3.03 ± 0.14
